Assay [1] concerns the target T1, human procollagen I α2 chain (human, UniProt P08123 23-1366).
T1 construct: The separated chain as it stood on the Western blot membrane; With the chimeric IgG, a partially degraded form was also positive; also called Pro-α2; collagen α2-chain
The assay is described as follows: Western blot, procollagen I chains on membrane, anti-His-HRP detection. In general terms: Immunoblotting shows a protein as a band on a membrane.

The target of assay [2] is T1, human procollagen I α2 chain. The assay is described as follows: Western blot, procollagen I chains on membrane, anti-human γ-HRP detection.
Assay [3] has the same target. As to the kind of experiment: Western blot, procollagen I chains on membrane, anti-FLAG-HRP detection.

T1 sequence (P08123 23-1366 limits assumed): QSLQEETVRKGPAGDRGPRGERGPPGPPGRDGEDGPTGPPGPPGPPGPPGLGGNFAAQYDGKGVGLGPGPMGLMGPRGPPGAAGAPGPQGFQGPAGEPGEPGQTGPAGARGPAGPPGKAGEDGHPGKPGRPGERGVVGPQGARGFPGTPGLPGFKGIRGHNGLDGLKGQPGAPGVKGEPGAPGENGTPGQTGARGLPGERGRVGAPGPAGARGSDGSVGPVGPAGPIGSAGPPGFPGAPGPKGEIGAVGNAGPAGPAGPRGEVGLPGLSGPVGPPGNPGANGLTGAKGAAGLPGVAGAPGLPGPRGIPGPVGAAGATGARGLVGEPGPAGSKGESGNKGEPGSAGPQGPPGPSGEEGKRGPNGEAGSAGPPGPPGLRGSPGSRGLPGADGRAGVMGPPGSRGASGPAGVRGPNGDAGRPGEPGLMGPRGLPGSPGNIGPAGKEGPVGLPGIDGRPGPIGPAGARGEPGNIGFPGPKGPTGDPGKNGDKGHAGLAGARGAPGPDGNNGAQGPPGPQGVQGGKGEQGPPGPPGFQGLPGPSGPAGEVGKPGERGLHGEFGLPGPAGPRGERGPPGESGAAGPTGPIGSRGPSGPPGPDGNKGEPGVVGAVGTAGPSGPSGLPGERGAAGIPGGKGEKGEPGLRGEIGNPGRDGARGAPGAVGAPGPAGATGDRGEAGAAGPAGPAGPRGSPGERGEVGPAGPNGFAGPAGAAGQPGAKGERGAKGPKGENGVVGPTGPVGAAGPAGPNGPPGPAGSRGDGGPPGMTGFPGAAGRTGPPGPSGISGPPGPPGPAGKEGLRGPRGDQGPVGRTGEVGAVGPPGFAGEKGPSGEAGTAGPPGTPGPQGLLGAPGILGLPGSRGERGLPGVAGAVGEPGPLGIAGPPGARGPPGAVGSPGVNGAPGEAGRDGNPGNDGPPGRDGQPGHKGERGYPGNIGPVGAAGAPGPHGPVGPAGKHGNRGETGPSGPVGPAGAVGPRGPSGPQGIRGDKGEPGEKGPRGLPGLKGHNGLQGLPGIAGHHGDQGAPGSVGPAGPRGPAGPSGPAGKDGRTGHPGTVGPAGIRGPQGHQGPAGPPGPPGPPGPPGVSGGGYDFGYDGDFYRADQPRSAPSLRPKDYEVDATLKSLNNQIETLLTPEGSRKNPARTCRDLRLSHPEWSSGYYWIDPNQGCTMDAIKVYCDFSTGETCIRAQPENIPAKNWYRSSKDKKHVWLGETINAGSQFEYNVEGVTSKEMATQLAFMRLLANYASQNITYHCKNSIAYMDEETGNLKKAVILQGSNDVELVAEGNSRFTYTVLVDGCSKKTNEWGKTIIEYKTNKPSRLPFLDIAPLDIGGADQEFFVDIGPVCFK

B1: His-tagged yeast-derived A_L_K scFv variant (scFv)
scFv: QIQLVQSGPELKKPGETVKISCKASGYTFTDYPLHWVKQAPGKGLQWMAWINTETGEPTYADDFTGRFAFSLETSASTAYLQINNLKNEDTATYFCVRGYYYYWGQGTTLSVSSGGGGSGGGGSGGGGSGGGGSGGGGSGGGGSDIVMSQSPSSLAVSAGEKVTMSCKSSQSLLNSRTRKNNLAWYQQKPGQSPKLLIYWASTRESGVPDRFTGSGSGTDFTLTISSVQAEDLAVYYCKQSYNLWTFGGGTKLEIKRHHHHHH
notes: It was secreted from yeast using pPIC-9K; also called yeast scFv variant
For B1, in assay [1], the binding result is recorded as “binds”.

B2: mouse-human chimeric IgG consisting of the mVH-hγ and mVL-hκ chains (antibody, V domains shown)
VH: QIQLVQSGPELKKPGETVKISCKASGYTFTDYPLHWVKQAPGKGLQWMAWINTETGEPTYADDFTGRFAFSLETSASTAYLQINNLKNEDTATYFCVRGYYYYWGQGTTLSVSS
VL: DIVMSQSPSSLAVSAGEKVTMSCKSSQSLLNSRTRKNNLAWYQQKPGQSPKLLIYWASTRESGVPDRFTGSGSGTDFTLTISSVQAEDLAVYYCKQSYNLWTFGGGTKLEIKR
notes: The constant regions are human IgG1 γ (pFUSE-CHIg-hG1) and human κ (pFUSE2-CLIg-hk); The antibody was expressed in CHO cells and purified on Protein-L; also called chimeric antibody; CHO-IgG
Consider B2, for which the binding result in assay [2] is recorded as “binds”.

B3: bacterial-derived scFv variant (anti-α2Ct single chain antibody, FLAG-tagged) (scFv)
scFv: MDIVMSQSPSSLAVSAGEKVTMSCKSSQSLLNSRTRKNNLAWYQQKPGQSPKLLIYWASTRESGVPDRFTGSGSGTDFTLTISSVQAEDLAVYYCKQSYNLWTFGGGTKLEIKVDGGGGSGGGGSGGGGSLEQIQLVQSGPELKKPGETVKISCKASGYTFTDYPLHWVKQAPGKGLQWMAWINTETGEPTYADDFTGRFAFSLETSASTAYLQINNLKNEDTATYFCVRGYYYYWGQGTTLSVSSDYKDDDDK
For the molecule B3, the binding result in assay [3] was “binds”.

The values are drawn from patent USRE49477 (THOMAS JEFFERSON UNIVERSITY, dated 2023).
